B1: FAS-associated death domain protein (Homo sapiens), Q13158 (parent)
chain: MDPFLVLLHSVSSSLSSSELTELKFLCLGRVGKRKLERVQSGLDLFSMLLEQNDLEPGHTELLRELLASLRRHDLLRRVDDFEAGAAAGAAPGEEDLCAAFNVICDNVGKDWRRLARQLKVSDTKIDSIEDRYPRNLTERVRESLRIWKNTEKENATVAHLVGALRSCQMNLVADLVQEVQQARDLQNRSGAMSPMSWNSDASTSEAS

Variants of: B1
Conditions: with FAS

Variant	effect of a mutation on the interaction
L172E	decreasing interaction

Reference: IntAct's records for PubMed 19118384
